B1: mutant 44 (Shh C1II/A169C + E113C), unmodified (ligand)
chain: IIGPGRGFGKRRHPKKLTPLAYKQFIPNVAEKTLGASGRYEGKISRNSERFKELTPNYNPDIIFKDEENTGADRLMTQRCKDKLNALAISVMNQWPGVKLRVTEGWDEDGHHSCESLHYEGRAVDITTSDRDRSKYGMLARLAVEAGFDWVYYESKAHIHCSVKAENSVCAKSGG
B2: mutant 44 (Shh C1II/A169C + E113C), 5 K PEG (ligand)
chain: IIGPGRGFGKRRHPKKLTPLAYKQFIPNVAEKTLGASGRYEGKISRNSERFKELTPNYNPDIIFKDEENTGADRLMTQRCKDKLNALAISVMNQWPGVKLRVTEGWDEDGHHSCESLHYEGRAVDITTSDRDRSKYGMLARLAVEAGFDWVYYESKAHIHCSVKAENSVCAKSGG
modifications: 5 K PEG maleimide on thiol of Cys113, Cys169
B3: mutant 45 (Shh C1II/A169C + G146C), unmodified (ligand)
chain: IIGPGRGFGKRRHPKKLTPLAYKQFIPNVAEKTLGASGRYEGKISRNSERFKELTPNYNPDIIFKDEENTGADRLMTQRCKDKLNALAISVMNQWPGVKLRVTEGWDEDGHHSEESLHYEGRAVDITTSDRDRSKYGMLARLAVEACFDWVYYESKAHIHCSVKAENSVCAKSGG
B4: mutant 45 (Shh C1II/A169C + G146C), 5 K PEG (ligand)
chain: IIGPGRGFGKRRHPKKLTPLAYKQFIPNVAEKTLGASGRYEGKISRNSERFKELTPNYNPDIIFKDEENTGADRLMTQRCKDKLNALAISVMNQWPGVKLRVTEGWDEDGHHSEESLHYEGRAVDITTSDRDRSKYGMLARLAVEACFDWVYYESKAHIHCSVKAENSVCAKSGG
modifications: 5 K PEG maleimide on thiol of Cys146, Cys169

These binders were tested against T1, Shh receptor molecules on C3H10T1/2 cells (UniProt Q61115 1-1434) (assay: cell-based or functional assay).
T1 sequence (looked up): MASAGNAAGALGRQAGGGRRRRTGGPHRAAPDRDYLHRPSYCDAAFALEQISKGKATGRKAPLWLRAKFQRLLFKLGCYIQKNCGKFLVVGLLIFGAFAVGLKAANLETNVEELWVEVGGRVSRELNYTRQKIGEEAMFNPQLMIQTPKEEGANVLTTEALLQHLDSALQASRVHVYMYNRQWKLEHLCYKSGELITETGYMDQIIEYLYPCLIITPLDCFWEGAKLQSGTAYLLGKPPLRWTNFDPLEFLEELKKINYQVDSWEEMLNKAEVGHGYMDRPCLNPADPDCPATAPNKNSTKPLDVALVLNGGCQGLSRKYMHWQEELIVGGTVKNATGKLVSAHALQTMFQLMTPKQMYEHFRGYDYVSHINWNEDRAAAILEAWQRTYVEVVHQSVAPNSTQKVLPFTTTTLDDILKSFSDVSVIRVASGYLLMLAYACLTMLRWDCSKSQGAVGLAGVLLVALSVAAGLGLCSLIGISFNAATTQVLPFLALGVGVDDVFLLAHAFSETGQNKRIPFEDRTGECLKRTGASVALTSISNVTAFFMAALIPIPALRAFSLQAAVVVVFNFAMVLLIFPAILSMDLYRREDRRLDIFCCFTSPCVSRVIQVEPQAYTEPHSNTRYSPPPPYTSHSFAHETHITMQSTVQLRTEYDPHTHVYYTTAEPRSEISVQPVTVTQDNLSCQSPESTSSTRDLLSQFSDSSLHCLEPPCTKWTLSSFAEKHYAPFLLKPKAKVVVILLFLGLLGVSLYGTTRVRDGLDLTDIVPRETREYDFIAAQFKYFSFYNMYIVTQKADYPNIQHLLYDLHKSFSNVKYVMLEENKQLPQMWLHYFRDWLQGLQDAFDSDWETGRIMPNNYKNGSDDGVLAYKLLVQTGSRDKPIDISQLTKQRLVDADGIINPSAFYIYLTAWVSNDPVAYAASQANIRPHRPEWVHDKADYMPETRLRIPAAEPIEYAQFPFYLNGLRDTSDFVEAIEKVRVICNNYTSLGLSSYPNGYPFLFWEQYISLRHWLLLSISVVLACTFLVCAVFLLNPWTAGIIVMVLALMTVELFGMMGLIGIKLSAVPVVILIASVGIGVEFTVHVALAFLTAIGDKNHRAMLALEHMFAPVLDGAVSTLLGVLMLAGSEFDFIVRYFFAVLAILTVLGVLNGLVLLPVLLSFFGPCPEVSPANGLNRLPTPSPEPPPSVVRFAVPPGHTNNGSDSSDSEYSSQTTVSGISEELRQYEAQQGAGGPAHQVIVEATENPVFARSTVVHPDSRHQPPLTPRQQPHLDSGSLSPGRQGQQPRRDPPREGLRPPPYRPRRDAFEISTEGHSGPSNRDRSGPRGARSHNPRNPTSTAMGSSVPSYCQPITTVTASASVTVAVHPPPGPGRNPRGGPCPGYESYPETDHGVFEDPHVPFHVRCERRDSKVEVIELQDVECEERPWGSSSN

| Binder | IC50 in C3H10T1/2 assay |
| --- | --- |
| B1 | 1 µg/mL |
| B2 | 0.6 µg/mL |
| B3 | 0.3 µg/mL |
| B4 | 0.5 µg/mL |
